One substance from paper PMC10030352 can be followed below.

This experiment has as its target human NCC_(cryo1) (human) (UniProt P55017). Briefly: cryo-EM structure.

Take “human NCC_(cryo1) (from UniProt P55017 1-1021) (natural protein)”: the stoichiometry N is 2.

One may read the stoichiometry N as the number of molecules, sites or subunits per partner or assembly.
